In patent publication WO2012119989A2 (dated 2012):
Changes are numbered by the printed parent chain.

T1: Cell adhesion molecule-1 (CADM1), human, on the cell surface (human) (UniProt Q9BY67)
T1 sequence (looked up): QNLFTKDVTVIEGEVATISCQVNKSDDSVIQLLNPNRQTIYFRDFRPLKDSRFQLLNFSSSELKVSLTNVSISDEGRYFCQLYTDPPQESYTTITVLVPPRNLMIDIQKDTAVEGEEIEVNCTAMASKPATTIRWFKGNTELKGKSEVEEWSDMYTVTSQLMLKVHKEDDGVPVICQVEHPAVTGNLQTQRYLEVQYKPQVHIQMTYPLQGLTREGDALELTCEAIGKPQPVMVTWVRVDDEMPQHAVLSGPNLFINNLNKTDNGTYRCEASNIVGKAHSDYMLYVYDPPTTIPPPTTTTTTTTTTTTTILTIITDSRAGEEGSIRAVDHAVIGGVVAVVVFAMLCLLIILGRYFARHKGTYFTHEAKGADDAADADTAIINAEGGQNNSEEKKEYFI

T2: CADM1 extracellular domain expressed by the CHO-Flpln CADM1 cell line (human) (UniProt Q9BY67)
T2 sequence: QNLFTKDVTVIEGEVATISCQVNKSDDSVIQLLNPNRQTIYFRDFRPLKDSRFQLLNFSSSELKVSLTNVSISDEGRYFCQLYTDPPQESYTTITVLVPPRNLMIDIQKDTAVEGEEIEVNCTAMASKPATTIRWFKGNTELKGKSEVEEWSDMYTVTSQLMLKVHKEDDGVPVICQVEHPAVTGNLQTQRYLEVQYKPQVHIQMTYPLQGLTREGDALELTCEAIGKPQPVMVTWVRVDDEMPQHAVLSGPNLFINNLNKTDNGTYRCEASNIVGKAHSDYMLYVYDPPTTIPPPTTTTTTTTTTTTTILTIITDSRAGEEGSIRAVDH

T3: CADM2, human, on transfected CHO cells (human, UniProt Q8N3J6 25-435)
T3 construct: whole, on cells
T3 sequence (looked up): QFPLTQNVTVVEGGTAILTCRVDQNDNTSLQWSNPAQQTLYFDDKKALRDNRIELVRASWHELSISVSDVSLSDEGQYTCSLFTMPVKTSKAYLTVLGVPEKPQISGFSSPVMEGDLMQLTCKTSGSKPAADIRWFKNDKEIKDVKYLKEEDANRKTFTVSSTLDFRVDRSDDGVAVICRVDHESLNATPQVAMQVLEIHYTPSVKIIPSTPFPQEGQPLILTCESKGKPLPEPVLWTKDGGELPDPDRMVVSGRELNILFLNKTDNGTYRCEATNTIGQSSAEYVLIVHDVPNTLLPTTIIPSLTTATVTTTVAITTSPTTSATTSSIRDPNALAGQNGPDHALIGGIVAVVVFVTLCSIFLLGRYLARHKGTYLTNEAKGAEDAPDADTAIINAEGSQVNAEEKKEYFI

T4: CADM4, human, on transfected CHO cells (human, UniProt Q8NFZ8 21-388)
T4 construct: whole, on cells; also called CAD 4
T4 sequence (looked up): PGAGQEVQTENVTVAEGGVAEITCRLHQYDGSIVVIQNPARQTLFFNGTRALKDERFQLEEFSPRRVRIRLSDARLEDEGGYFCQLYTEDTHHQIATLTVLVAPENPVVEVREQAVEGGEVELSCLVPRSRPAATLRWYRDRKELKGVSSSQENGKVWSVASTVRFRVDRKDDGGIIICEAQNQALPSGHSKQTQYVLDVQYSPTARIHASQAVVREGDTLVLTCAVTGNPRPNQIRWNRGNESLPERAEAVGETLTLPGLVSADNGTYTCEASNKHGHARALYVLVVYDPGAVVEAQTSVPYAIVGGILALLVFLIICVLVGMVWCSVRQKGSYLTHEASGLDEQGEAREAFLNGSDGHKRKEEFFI

T5: Cell adhesion molecule-1 (CADM1), human, on the cell surface (human, UniProt Q9BY67 45-442)
T5 construct: whole, on cells; also called TSLC1; IGSF4
T5 sequence (looked up): T1 sequence (looked up)

T6: CADM3, human, on transfected CHO cells (human, UniProt Q8N126 25-398)
T6 construct: whole, on cells; also called CADSV13 (OCR)
T6 sequence (looked up): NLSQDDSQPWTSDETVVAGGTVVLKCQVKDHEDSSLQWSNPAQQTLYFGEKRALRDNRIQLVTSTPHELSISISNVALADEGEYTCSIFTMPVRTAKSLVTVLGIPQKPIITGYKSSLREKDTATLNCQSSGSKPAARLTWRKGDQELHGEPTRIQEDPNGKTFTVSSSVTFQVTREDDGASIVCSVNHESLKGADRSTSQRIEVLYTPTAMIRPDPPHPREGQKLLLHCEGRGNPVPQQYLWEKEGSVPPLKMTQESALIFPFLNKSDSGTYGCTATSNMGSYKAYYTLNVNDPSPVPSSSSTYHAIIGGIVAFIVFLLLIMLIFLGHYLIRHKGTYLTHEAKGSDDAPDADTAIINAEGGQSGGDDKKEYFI

B1: Antibody-2 (antibody, V domains shown)
VH: EVQLLESGGGLVQPGGSLRLSCAASGFTFSKYEMVWVRQAPGKGLEWVSYIVPSGGATLYADSVKGRFTISRDNSKNTLYLQMNSLRAEDTAVYYCARVKAGVFDYWGQGTL
VL: QYELTQPPSVSVSPGQTARITCSGDRLGETYVSWYQQKPGQSPVLVIFEDNKRPSGIPERFSGSNSGNTATLTVSGTRAMDEADYYCQAWVGSTPFVFGTGTKVTVL
B2: Antibody-1 (antibody, V domains shown)
VH: EVQLLESGGGLVQPGGSLRLSCAASGFTFSFYPMQWVRQAPGKGLEWVSSIGSSGGYTKYADSVKGRFTISRDNSKNTLYLQMNSLRAEDTAVYYCTRDRWYFDLWGRGTL
VL: QSELTQDPAVSVALGHTVKITCQGDTFRTYYASWYQQKPGQAPLLVVYGENKRPSGIPDRFSGSTSGNTASLTITGAQAEDEADYYCHSRDNSGHLHVFGGGTKVTVL
B3: Antibody-10 (antibody, V domains shown)
VH: B2 VH with F31M, P33T, Q35S, G52W, Y57K, K59S, T97A, R98K, D99E, R100S
VL: QYELTQDPAVSVALGQTVRITCQGHSLRSYYATWYQQKPGQAPVLVMYGENNRPSGIPDRFSGSSSGNTASLTITGAQAEDEADYYCNSRDNSGNHLVFGGGTNLTVL
notes: also called AB10; AB 1 0
B4: AB2 NF (antibody, V domains shown)
VH: B1 VH
VL: B1 VL
B5: Antibody-3 (antibody, V domains shown)
VH: B2 VH with F31R, Q35Y, G52S, Y57L, K59H, T97A, D99G, R100D
VL: QYELTQDPAVSVALGQTVRITCQGDSLRTYYASWYQQRPGQAPVLVIYGDNDRPSGIPDRFSGSTSRNTASLTITGAQAEDEAHYYCNSRDSSGNHIFATGTKVTVL
notes: also called AB3; AB 3
B6: anti-CADM1 AB-10, mouse IgG2a isotype (antibody, V domains shown)
VH: B2 VH with F31M, P33T, Q35S, G52W, Y57K, K59S, T97A, R98K, D99E, R100S
VL: B3 VL
notes: also called AB-10 mouse lgG2a

Columns and labels:
[1] = molecular target: T1, Cell adhesion molecule-1 (CADM1), human, on the cell surface (human); experiment: flow cytometry, DU145 prostate cancer cells, antibody 10ug/ml
[2] = molecular target: T1, Cell adhesion molecule-1 (CADM1), human, on the cell surface (human); experiment: flow cytometry, SKMEL28 melanoma cells, antibody 10ug/ml
[3] = molecular target: T1, Cell adhesion molecule-1 (CADM1), human, on the cell surface (human); experiment: flow cytometry, SW480 colon cancer cells, antibody 10ug/ml
[4] = molecular target: T1, Cell adhesion molecule-1 (CADM1), human, on the cell surface (human); experiment: flow cytometry, LnCaP cells
[5] = molecular target: T2, CADM1 extracellular domain expressed by the CHO-Flpln CADM1 cell line (human); experiment: flow cytometry, CHO-Flpln CADM1 cells
[6] = molecular target: T1, Cell adhesion molecule-1 (CADM1), human, on the cell surface (human); experiment: flow cytometry, Lovo colon cancer cells, antibody 10ug/ml
[7] = molecular target: T1, Cell adhesion molecule-1 (CADM1), human, on the cell surface (human); experiment: cell-based or functional assay
[8] = molecular target: T1, Cell adhesion molecule-1 (CADM1), human, on the cell surface (human); experiment: flow cytometry, DU145 cells
[9] = molecular target: T1, Cell adhesion molecule-1 (CADM1), human, on the cell surface (human); experiment: flow cytometry, LnCaP cells (second table of Example 15)
[10] = molecular target: T1, Cell adhesion molecule-1 (CADM1), human, on the cell surface (human); experiment: flow cytometry, MDA-MB-435S melanoma cells, antibody 10ug/ml
[11] = molecular target: T2, CADM1 extracellular domain expressed by the CHO-Flpln CADM1 cell line (human); experiment: flow cytometry, CHO-Flpln CADM1 cells (second table of Example 15)
[12] = molecular target: T1, Cell adhesion molecule-1 (CADM1), human, on the cell surface (human); experiment: flow cytometry, LnCaP prostate cancer cells, antibody 10ug/ml
[13] = molecular target: T1, Cell adhesion molecule-1 (CADM1), human, on the cell surface (human); experiment: flow cytometry, Caco-2 colon cancer cells, antibody 10ug/ml
[14] = molecular target: T3, CADM2, human, on transfected CHO cells; experiment: flow cytometry, CHO cells transiently transfected with CADM2
[15] = molecular target: T4, CADM4, human, on transfected CHO cells; experiment: flow cytometry, CHO cells transiently transfected with CADM4
[16] = molecular target: T5, Cell adhesion molecule-1 (CADM1), …; experiment: flow cytometry titration, A375 melanoma cells, human IgG1 isotype
[17] = molecular target: T6, CADM3, human, on transfected CHO cells; experiment: flow cytometry, CHO cells transiently transfected with CADM3
[18] = molecular target: T5, Cell adhesion molecule-1 (CADM1), …; experiment: flow cytometry titration, SKOV3 ovary cancer cells
[19] = molecular target: T5, Cell adhesion molecule-1 (CADM1), …; experiment: flow cytometry titration, A375 melanoma cells, mouse IgG2a isotype

Row | Binder | % of fluorescence cells [1] [%] | percent of cells bound [4] [%] | percent of cells bound [5] [%] | percent of cells bound [8] [%] | percent of cells bound [9] [%] | percent of cells bound [11] [%] | binding result [14] | binding result [15] | binding result [17] | also measured
1 | B1 | 99.5 | 99.5 | 99.9 | 99.5 | 98.6 | 98.3 | – | – | – | % of fluorescence cells [2]: 100%; % of fluorescence cells [3]: 100%; % of fluorescence cells [6]: 99.2%; % cell viability at 100 nM, Hum-ZAP assay, A375 melanoma cells [7]: 26.2%; % cell viability at 100 nM, Hum-ZAP assay, Caco-2 colon cancer cells [7]: 55.9%; % cell viability at 100 nM, Hum-ZAP assay, Lovo colon cancer cells [7]: 34.3%; % cell viability at 100 nM, Hum-ZAP assay, MDA-MB-435S melanoma cells [7]: 27.3%; % cell viability at 100 nM, Hum-ZAP assay, SKMEL28 melanoma cells [7]: 36.7%; % cell viability at 100 nM, Hum-ZAP assay, SW480 colon cancer cells [7]: 20.6%; % of viability, Hum-ZAP internalization assay, positive CADM1 cell line, antibody 10-6 M [7]: 85.1%; % of viability, Hum-ZAP internalization assay, positive CADM1 cell line, antibody 10-7 M [7]: 29.3%; % of viability, Hum-ZAP internalization assay, positive CADM1 cell line, antibody 10-8 M [7]: 14%; % of fluorescence cells [10]: 100%; % of fluorescence cells [12]: 98.6%; % of fluorescence cells [13]: 99.6%
2 | B2 | 99 | 99.6 | 99.8 | 99 | – | – | – | – | – | % cell viability at 100 nM, Hum-ZAP assay, DU145 prostate cancer cells [7]: 60.6%
3 | B3 | – | – | 99.8 | – | – | 98.7 | no binding (tested: 10ug/ml (protocol of Example 19)) | no binding (tested: 10ug/ml (protocol of Example 19)) | no binding (tested: 10ug/ml (protocol of Example 19)) | EC50 [16]: 1.26 nM
4 | B4 | – | – | – | – | 96.8 | 98.5 | – | – | – | –
5 | B5 | – | – | 99.7 | – | – | – | no binding (tested: 10ug/ml (protocol of Example 19)) | no binding (tested: 10ug/ml (protocol of Example 19)) | no binding (tested: 10ug/ml (protocol of Example 19)) | EC50 [18]: 1 nM
6 | B6 | – | – | – | – | – | – | – | – | – | EC50 [19]: 0.76 nM
